# In article PMC2148126:
# Where two headings read alike, the source gives them in different places.
# Tests used:
# [1] = target: Alf1p-myc (S. cerevisiae) (UniProt P53904); assay: co-IP
# [2] = target: Alf1p-myc (S. cerevisiae) (UniProt P53904); assay: co-IP; remark: listed apart in the source
# Chain of UniProt P53904 (P53904 whole entry): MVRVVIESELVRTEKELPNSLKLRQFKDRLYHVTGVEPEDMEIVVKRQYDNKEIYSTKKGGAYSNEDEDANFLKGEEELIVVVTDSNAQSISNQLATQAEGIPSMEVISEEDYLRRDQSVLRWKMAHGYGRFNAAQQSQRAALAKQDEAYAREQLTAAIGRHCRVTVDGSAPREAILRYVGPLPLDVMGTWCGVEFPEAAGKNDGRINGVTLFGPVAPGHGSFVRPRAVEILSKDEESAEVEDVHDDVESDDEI
substance,measurement,setting,value
"α-tubulin, endogenous in yeast extract (from UniProt P09733 1-447) (natural protein)",ratio of α-tubulin to β-tubulin precipitated,[1],20 fold
same,ratio of α-tubulin to β-tubulin precipitated,[2],2 fold
